This test has as its target A型FMDV毒株. Nature of the test: cell-based or functional assay.

B1: A型口蹄疫病毒中和抗体Ab1 (VHH)
VHH: QVQLQESGGGLVQAGGSLRLSCVYSGFTFGHYSMGWYRQAPGKEREFVAAIRRSDGSTDYADSTVKGRFTISRDNAKKTVYLQMNSLKPEDTAVYYCATVRRVATLSGSSSWGQGTQVTVSS
For B1, the Neu 50 (病毒中和试验) stood at 1.2 µmol/L.

The values are drawn from patent CN117990904A.
